In article PMC7116854 (Nature, 2020):
Where two headings read alike, the source gives them in different places.

Columns and labels:
Test in all cases: SPR
[1] = target: T1, LILRB1 D1D4 (complete extracellular domain of LILRB1) (human, UniProt Q8NHL6 24-417)
LILRB1 D1D2 [2] = target: T2, LILRB1 D1D2 (human, UniProt Q8NHL6 24-221)
[3] = target: T1, LILRB1 D1D4 (complete extracellular …); remark: listed apart in the source
LILRB1 D1D2 [4] = target: T2, LILRB1 D1D2; remark: listed apart in the source

T2 sequence (Q8NHL6 24-221): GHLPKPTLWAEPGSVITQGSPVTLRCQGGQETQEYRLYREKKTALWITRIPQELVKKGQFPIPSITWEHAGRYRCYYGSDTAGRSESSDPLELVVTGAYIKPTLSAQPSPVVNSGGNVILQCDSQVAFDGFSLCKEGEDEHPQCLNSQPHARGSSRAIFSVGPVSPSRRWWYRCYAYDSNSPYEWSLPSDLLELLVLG
T1 sequence (Q8NHL6 24-417): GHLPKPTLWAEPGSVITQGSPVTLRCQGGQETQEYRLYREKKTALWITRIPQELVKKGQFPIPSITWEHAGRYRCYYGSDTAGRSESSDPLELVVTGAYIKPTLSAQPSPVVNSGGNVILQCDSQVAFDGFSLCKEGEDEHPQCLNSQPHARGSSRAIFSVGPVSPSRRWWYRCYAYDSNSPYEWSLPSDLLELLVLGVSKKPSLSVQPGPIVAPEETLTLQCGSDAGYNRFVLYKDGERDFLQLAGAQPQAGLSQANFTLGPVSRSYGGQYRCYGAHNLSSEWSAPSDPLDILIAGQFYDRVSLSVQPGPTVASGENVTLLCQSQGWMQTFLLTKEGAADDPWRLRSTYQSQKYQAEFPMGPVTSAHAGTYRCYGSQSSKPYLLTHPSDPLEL

Row | Binder | Kd [1] | Kd (LILRB1 D1D2 [2]) | Kd [3] | koff [3] | kon [3] | Kd (LILRB1 D1D2 [4]) | koff (LILRB1 D1D2 [4]) | kon (LILRB1 D1D2 [4])
1 | RIFIN PF3D7_1254800 variable region C223S (165-261) (domain or fragment) NYETINAFIAKTIEELEGIPGITKLFGAKISQFVTPAVFRKPMSLVETILSEKKKLCLSAANKNELLCRGMNPNVPETLPKKIEVAVNEVLSSVNDT | 0.7 ± 0.005 µM | 1.1 ± 0.05 µM | 1.04 µM | 0.299 s⁻¹ | 288000 M⁻¹ s⁻¹ | 1.33 µM | 0.579 s⁻¹ | 437000 M⁻¹ s⁻¹
2 | RIFIN PF3D7_0100400 variable region (165-329) (domain or fragment) VWKTTEIAAAMELAKQAGAAAGLKAGHLAGTNAVIEQLRTLGIYFVGDKLLETIIDVTNYMNVSFIYDKVYSHYTTSCTPSLVNDQLVGTFNTSDPFCNLVHSNLQGSFYRSSAQTIIYEKVEEAVAGAEQAATTKTAVMTPIYTTEFTAKNIAEVEAATTSYYT | 4.4 ± 3.2 µM | – | 14.5 µM | 0.0592 s⁻¹ | 4100 M⁻¹ s⁻¹ | – | – | –
3 | RIFIN PF3D7_1254800 variable region (residues 165-274) (domain or fragment) NYETINAFIAKTIEELEGIPGITKLFGAKISQFVTPAVFRKPMSLVETILSEKKKLCLCAANKNELLCRGMNPNVPETLPKKIEVAVNEVLSSVNDTWATATTPTTFFTN | 0.57 ± 0.13 µM | – | 1.13 µM | 0.297 s⁻¹ | 263000 M⁻¹ s⁻¹ | – | – | –
